Biological target: T1, GST-tagged PKM2 (UniProt P14618 1-531)
T1 construct: Pyruvate kinase isoform M2 (PKM2); also called GST-PKM2; source: purified
Assay: pull-down; GST-pull down in vitro using purified GST-tagged PKM2 and TIPE-HA
Conditions: both partners purified

T1 sequence (P14618 whole entry, canonical isoform): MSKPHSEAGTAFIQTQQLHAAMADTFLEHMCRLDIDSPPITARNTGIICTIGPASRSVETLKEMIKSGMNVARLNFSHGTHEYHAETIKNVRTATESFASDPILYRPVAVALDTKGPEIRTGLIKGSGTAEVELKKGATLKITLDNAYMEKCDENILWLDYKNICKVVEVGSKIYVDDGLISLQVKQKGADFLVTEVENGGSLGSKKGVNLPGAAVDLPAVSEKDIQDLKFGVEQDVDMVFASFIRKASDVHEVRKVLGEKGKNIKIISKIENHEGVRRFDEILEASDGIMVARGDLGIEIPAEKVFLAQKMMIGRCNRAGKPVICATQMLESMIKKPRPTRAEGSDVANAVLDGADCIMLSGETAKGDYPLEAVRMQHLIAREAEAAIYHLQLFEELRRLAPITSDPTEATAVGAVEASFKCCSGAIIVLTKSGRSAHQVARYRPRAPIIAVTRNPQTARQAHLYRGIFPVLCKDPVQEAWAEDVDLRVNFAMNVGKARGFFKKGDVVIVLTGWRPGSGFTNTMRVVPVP

binding result: binds
B1: TIPE-HA used in the GST-pull down assay (natural protein, UniProt O95379 1-198, looked up)
chain: MHSEAEESKEVATDVFNSKNLAVQAQKKILGKMVSKSIATTLIDDTSSEVLDELYRVTREYTQNKKEAEKIIKNLIKTVIKLAILYRNNQFNQDELALMEKFKKKVHQLAMTVVSFHQVDYTFDRNVLSRLLNECREMLHQIIQRHLTAKSHGRVNNVFDHFSDCEFLAALYNPFGNFKPHLQKLCDGINKMLDEENI
notes: TIPE (TNFAIP8); The legend says 'using purified GST-tagged PKM2 and TIPE-HA'; It may be the same construct as m3
